# Measurements: publication PMC8067585
# Target: CePoFUT1 single mutant M172C, singly labelled with ATTO488 or ATTO647N (Caenorhabditis elegans) (UniProt Q18014)
# Assay: single-molecule fluorescence coincidence (dual-colour PIE); CePoFUT1-A488 and CePoFUT1-A647N incubated 1:1 at 1 uM for 30 min in 10 mM Tris, 1 mM EDTA, 0.005% Tween 20, pH 8.5, diluted to 40 pM; substrates at 15-fold molar excess where added; monomer to dimer
substance,measurement,value
"CePoFUT1 single mutant M172C, singly labelled with ATTO488 or ATTO647N (from UniProt Q18014 26-383) (enzyme)",percent dimers (free form),6.2%
same,percent dimers (with GDP and HsEGF11-12-13),4.6%
same,percent dimers (with HsEGF11-12-13),6.7%
same,percent dimers (with HsEGF12),6.8%
same,percent of total protein in a dimeric state,4 to 6%
same,stoichiometry N,2
